In article PMC11339442 one finds EC50 data, which are given here for 3 substances.

The assay addresses CD20. Put plainly: flow_cytometry. The following applies: 4.0 °C.

In turn, 2OSL-Fab-L-Y32NY came in with an EC50 (pH 6.0) of 8 nM.
Take 2OSL-Fab (WT): where the note is “pH 7.4”, the EC50 is 14 nM.
Take 2OSL-Fab-H-Y97NY: the EC50 (pH 6.0) came out at 20 nM.

Broadly, the EC50 is the concentration that produces a half-maximal response. A high value points to lower potency in that assay.
